Substrate in series [1]: NC(=O)CC[C@H](N)C(=O)O
The series can be described thus: transamination kinetics with CRM M as acceptor; crystal structure. Particulars: 0.2 mM CRM M, 80 μM PLP, 4 μM CrmG, 200 mM Tris pH 7.5, 30 °C, no external aldimine in crystal. It is filed as biochemical, Actinoalloteichus sp. WH1-2216-6.

Substrate in series [2]: N[C@@H](CCC(=O)O)C(=O)O
Nature of the series: transamination kinetics with CRM M as acceptor; crystal structure of external aldimine. Particulars: 0.2 mM CRM M, 80 μM PLP, 4 μM CrmG, 200 mM Tris pH 7.5, 30 °C, covalent PLP-Glu external aldimine in crystal. It is filed as biochemical, Actinoalloteichus sp. WH1-2216-6.

Substrate in the series “purified protein”: C[C@H](N)C(=O)O
The series can be described thus: purified protein. To be noted: 0.2 mM CRM M, 80 μM PLP, 4 μM CrmG, 200 mM Tris pH 7.5, 30 °C, covalent PLP-Ala external aldimine in crystal.

Our source for the Km values is article PMC7438487, “Structural studies reveal flexible roof of active site responsible for ω-transaminase CrmG overcoming by-product inhibition” (Communications Biology, 2020).

The term Km denotes the substrate concentration at which the rate is half of its maximum.

B1: CrmG (Actinoalloteichus sp. WH1-2216-6) (protein)
chain: MTHPSGEPVYADAVLNGWLTSMGLGVEYVRAEGNTVYYLDDEGREVPVLDHACGFGSLIFGHNHPEIIAHAKAALDAGTVVHAQLSRQPRANQISRILNDIMRRETGRDDRYNAIFANSGAEANEICMKHAELERQERITALFAEIDAELDTAREALTTGTATLDTASLPLVGGGAGDVDGVIADIHRHNDERRAERPLFLTLDGSFHGKLVGSIQLTQNEPWRTPFTALSSPARFLPADEPELIGKIVEDERRSVLTLSLDKDTVRVVERDFPVVAAIFVEPVRGGSGMKTVTPELAEELHRLRDTLGCPLVVDEVQTGIGRTGAFFGSALLGIRGDYYTLAKAIGGGIVKNSVALIRQDRFLPAMEVIHSSTFAKDGLSASIALKVLEMVEADGGRVYQRVRERGQRLEAMLESVRADHSDVVSAVWGTGLMLALELRDQSNATSQAIREKAAHGFLGYVLAGFLLREHHIRVLPAGPRSGFLRFSPSLYITDEEIDRTETALRSLFTALRDQDGDRLVLS
notes: pET28a, N-terminal His-tag and 14 additional vector residues; expressed in E. coli BL21; dimer (114 kDa by DLS)
For B1, the values for the Km (in series [1]; in series [2]; in the series “purified protein”) were 182.70 µM, 80.02 µM and 405.10 µM, respectively.
